Consider two molecules from US20140227251A1 (AbbVie / Abbott, published 2014).

The target in this assay is T1, Human TNF-α (R&D Systems) (human, UniProt P01375 77-233, labeled with Alexa Fluor 647 in the FACS assays).
T1 construct: also called Alexa Fluor 647-labeled TNF-α; TNF-α-AF647
The assay can be described thus: surface plasmon resonance (Biacore).

T1 sequence (P01375 77-233 limits assumed): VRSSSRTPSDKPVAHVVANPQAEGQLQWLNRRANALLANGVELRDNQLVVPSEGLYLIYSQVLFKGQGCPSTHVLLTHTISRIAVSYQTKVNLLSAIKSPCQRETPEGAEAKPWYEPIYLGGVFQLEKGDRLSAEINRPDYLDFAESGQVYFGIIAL

B1: D2E7 combination variant Y32K/SS-R30I (antibody, V domains shown)
VH: not shown
VL: DIQMTQSPSSLSASVGDRVTITCRASQSIINYLSWYQQKPGKAPKLLIYAASTLQSGVPSRFSGSGSGTDFTLTISSLQPEDVATYYCQRYNRAPYTFGQGTKVEIK
notes: VL-SS backbone = G28S and A34S in CDR-L1 (Kabat); Expressed and purified variant antibody; also called Y2K in CDR-H1 with G5S, R7I and A11S in CDR-L1
For the molecule B1, the binding result was “binds”.

B2: D2E7 combination variant Y32K/SS-R30T (antibody, V domains shown)
VH: not shown
VL: DIQMTQSPSSLSASVGDRVTITCRASQSITNYLSWYQQKPGKAPKLLIYAASTLQSGVPSRFSGSGSGTDFTLTISSLQPEDVATYYCQRYNRAPYTFGQGTKVEIK
notes: VL-SS backbone = G28S and A34S in CDR-L1 (Kabat); Expressed and purified variant antibody; also called Y2K in CDR-H1 with G5S, R7T and A11S in CDR-L1
In the case of B2, the binding result is “binds”.
